Laboratory results taken from paper PMC3677933, “Identification of Class I HLA T Cell Control Epitopes for West Nile Virus” (PLoS ONE, 2013).
Ends that are not written are not given here.

Columns and labels:
[1] = target: HLA-A*11:01 (fluorescence polarisation peptide-binding assay); assay: fluorescence polarisation; competitive binding assay of synthetic peptide with HLA-A*11:01 (Pure Protein L.L.C. method, ref. 45); IC50 <5,000 nM categorised as high affinity
[2] = target: T1, HLA-A*11:01 (Homo sapiens, UniProt P04439, A114D/D185E/E176A/F33Y/L180Q/S129P/T187R); assay: Fluorescence polarization competitive peptide-binding assay
T1 construct: purchased Pure Protein L.L.C
Method: Figure 1 Direct epitope discovery of WNV epitope GTL9. (A) RP-HPLC profile of HLA-A*11:01 peptides from uninfected (blue) and WNV-infected (red) cells. (B) MS ion spectra of HPLC fraction 50 from uninfected (black) and infected (red) cells. MS data were recorded for 300 scans. (C) Overlay of the MS/MS fragmentation pattern of ion 466.7 in the infected HPLC fraction 50 (identified as the GTL9 peptide; red) with the MS/MS fragmentation pattern for the GTL9 synthetic peptide (black). (D) Florescence polarization competitive binding assay with the GTL9 synthetic peptide and HLA-A*11:01.
These six WNV peptides fit the reported A*11:01-binding motif. […] The fluorescence polarization assay used to assess A*11:01 binding categorizes peptides with IC50 values <5,000 nM as high affinity. In summary, six WNV ligands were discovered by direct elution from A*11:01, these ligands were sequenced by tandem MS, their sequence was confirmed with synthetic ligands, they bound well to A*11:01, they were of traditional length, and these ligands were consistent with the previously reported A*11:01 motif.
MS ion maps were generated for HPLC fractions containing peptides. Fractions were ionized by using nanoelectrospray capillaries (Proxeon) into a QSTAR elite (Applied Biosystems) electrospray quadrupole time-of-flight mass spectrometer. Peptide sequences were determined manually by using the MASCOT software package (Matrix Science). Peptide binding to HLA-A*11:01 was determined using the florescence polarization method (Pure Protein L.L.C.).

AII11 synthetic peptide (WNV NS5 2559-2569)
IC50 [1]: 11.2 µM

AIIEVDRSAAK [AII11]
IC50 [2]: 11.2 µM

AVV9 synthetic peptide (WNV NS4B 2458-2466)
IC50 [1]: 2.25 µM

AVVVNPSVK [AVV9]
IC50 [2]: 2.25 µM

GTL9 synthetic peptide (WNV capsid 89-97)
IC50 [1]: 1.13 µM

GTLTSAINR [GTL9]
IC50 [2]: 1.13 µM

KNM9 synthetic peptide (WNV NS4B 2519-2527)
IC50 [1]: 24.3 µM

KNMEKPGLK [KNM9]
IC50 [2]: 24.3 µM

KSY9 synthetic peptide (WNV NS3 1894-1902)
IC50 [1]: 7.88 µM

KSYETEYPK [KSY9]
IC50 [2]: 7.89 µM

RVL9 synthetic peptide (WNV capsid 23-31)
IC50 [1]: 0.334 µM

RVLSLIGLK [RVL9]
IC50 [2]: 0.334 µM
